Data set [1] deals with the molecule itself. Put plainly: SEC-MALS; Superdex 200 Increase 10/300 GL; 50 mM Tris-HCl pH 8.0, 300 mM NaCl, 2 mM TCEP; TRIM72 WT at 11.2, 5.6 and 2.8 mg/ml; dimer in solution. Background: SEC sorts molecules by how far they enter the pores of the column.
Data set [2] deals with the molecule itself. The data set is described as follows: cryo-EM structure; cryo-ET and subtomogram averaging of proteoliposomes (80 mol% DOPS, 20 mol% cholesterol); 50 mM Tris-HCl pH 8.0, 150 mM NaCl, 1 mM TCEP; higher-order assembly of dimers on the lipid bilayer.
Data set [3] concerns the molecule itself. The data set is described as follows: cross-linking; time-dependent cross-linking of TRIM72 WT purified from mammalian cells (copurified with endogenous microvesicles).

Changes are numbered by the printed parent chain.

B1: mouse TRIM72 wild type (tripartite motif-containing protein 72) (natural protein, UniProt Q1XH17 1-477, looked up)
chain: MSAAPGLLRQELSCPLCLQLFDAPVTAECGHSFCRACLIRVAGEPAADGTVACPCCQAPTRPQALSTNLQLSRLVEGLAQVPQGHCEEHLDPLSIYCEQDRTLVCGVCASLGSHRGHRLLPAAEAQARLKTQLPQQKMQLQEACMRKEKTVAVLEHQLVEVEETVRQFRGAVGEQLGKMRMFLAALESSLDREAERVRGDAGVALRRELSSLNSYLEQLRQMEKVLEEVADKPQTEFLMKFCLVTSRLQKILSESPPPARLDIQLPVISDDFKFQVWKKMFRALMPALEELTFDPSSAHPSLVVSSSGRRVECSDQKAPPAGEDTRQFDKAVAVVAQQLLSQGEHYWEVEVGDKPRWALGVMAADASRRGRLHAVPSQGLWLLGLRDGKILEAHVEAKEPRALRTPERPPARIGLYLSFADGVLAFYDASNPDVLTPIFSFHERLPGPVYPIFDVCWHDKGKNAQPLLLVGPEQEQA
notes: TRIM72 (MG53), Mus musculus, wild type, full length; Tight dimer in solution by SEC-MALS; higher-order assembly only on PS liposomes; also called TRIM72 WT; MG53; source: E. coli BL21(DE3), purified (AC, IEX, SEC); not shown: His6, N-terminal, cleaved; MBP, N-terminal, cleaved
The term stoichiometry N denotes the number of molecules, sites or subunits per partner or assembly. On to B1, for which, in data set [1], the “stoichiometry N” value stood at 2.

B2: mouse TRIM72^M138R (natural protein, UniProt Q1XH17 1-477, looked up)
chain: B1 chain with M138R
notes: TRIM72, Mus musculus, mutation on the outer side of the H1 helix of the coiled-coil domain; source: E. coli BL21(DE3), purified (AC, IEX, SEC); not shown: His6, N-terminal, cleaved; MBP, N-terminal, cleaved
Consider B2, for which the binding result in data set [2] is “binds”.

B3: human TRIM72 wild type, 2× Strep-tagged (natural protein, UniProt Q6ZMU5 1-477, looked up)
chain: MSAAPGLLHQELSCPLCLQLFDAPVTAECGHSFCRACLGRVAGEPAADGTVLCPCCQAPTRPQALSTNLQLARLVEGLAQVPQGHCEEHLDPLSIYCEQDRALVCGVCASLGSHRGHRLLPAAEAHARLKTQLPQQKLQLQEACMRKEKSVAVLEHQLVEVEETVRQFRGAVGEQLGKMRVFLAALEGSLDREAERVRGEAGVALRRELGSLNSYLEQLRQMEKVLEEVADKPQTEFLMKYCLVTSRLQKILAESPPPARLDIQLPIISDDFKFQVWRKMFRALMPALEELTFDPSSAHPSLVVSSSGRRVECSEQKAPPAGEDPRQFDKAVAVVAHQQLSEGEHYWEVDVGDKPRWALGVIAAEAPRRGRLHAVPSQGLWLLGLREGKILEAHVEAKEPRALRSPERRPTRIGLYLSFGDGVLSFYDASDADALVPLFAFHERLPRPVYPFFDVCWHDKGKNAQPLLLVGPEGAEA
notes: TRIM72 (MG53), human, wild type, full length; Copurified with endogenous microvesicles of about 100 nm; also called TRIM72 WT purified from mammalian cells; mammalian-expressed human TRIM72; source: HEK293T, transfected (polyethyleneimine), purified (StrepTrap HP, SEC on Superose 6 Increase)
In the case of B3, the binding result in data set [3] is on record as “binds”.

For the origin of these results see paper PMC10643145, “Structure and activation of the RING E3 ubiquitin ligase TRIM72 on the membrane” (Nature Structural & Molecular Biology, 2023).
